In paper PMC11757143, “Generation and characterization of OX40-ligand fusion protein that agonizes OX40 on T-Lymphocytes” (Frontiers in Immunology, 2025):

Key:
Fc-scOX40L (mouse) = Fc-scOX40L (mouse) (UniProt P43488); test: non-reducing SDS-PAGE and immunoblot; recombinant OX40L proteins in Laemmli sample buffer, non-heated/non-reducing, SDS-PAGE, immunoblot with anti-PA tag antibody; oligomers judged by molecular weight
scOX40L-Fc (mouse) = scOX40L-Fc (mouse) (UniProt P43488); test: as above

stoichiometry N (Fc-scOX40L (mouse)) | stoichiometry N (scOX40L-Fc (mouse)) | Substance
2 | – | Fc-scOX40L (from UniProt P43488 51-198; P43488 51-198; P43488 51-198) (Fc fusion)
– | 2 | scOX40L-Fc (from UniProt P43488 51-198; P43488 51-198; P43488 51-198) (Fc fusion)
